Data reported in article PMC11554844, “BEACH domain proteins function as cargo-sorting adaptors in secretory and endocytic pathways” (The Journal of Cell Biology, 2024).

B1: 3xFlag-EGFP-ALFY [human] / GST-CTLA4 (201–215) [human] (parent complex)
chain 1: MNMVKRIMGRPRQEECSPQDNALGLMHLRRLFTELCHPPRHMTQKEQEEKLYMMLPVFNRVFGNAPPNTMTEKFSDLLQFTTQVSRLMVTEIRRRASNKSTEAASRAIVQFLEINQSEEASRGWMLLTTINLLASSGQKTVDCMTTMSVPSTLVKCLYLFFDLPHVPEAVGGAQNELPLAERRGLLQKVFVQILVKLCSFVSPAEELAQKDDLQLLFSAITSWCPPYNLPWRKSAGEVLMTISRHGLSVNVVKYIHEKECLSTCVQNMQQSDDLSPLEIVEMFAGLSCFLKDSSDVSQTLLDDFRIWQGYNFLCDLLLRLEQAKEAESKDALKDLVNLITSLTTYGVSELKPAGITTGAPFLLPGFAVPQPAGKGHSVRNVQAFAVLQNAFLKAKTSFLAQIILDAITNIYMADNANYFILESQHTLSQFAEKISKLPEVQNKYFEMLEFVVFSLNYIPCKELISVSILLKSSSSYHCSIIAMKTLLKFTRHDYIFKDVFREVGLLEVMVNLLHKYAALLKDPTQALNEQGDSRNNSSVEDQKHLALLVMETLTVLLQGSNTNAGIFREFGGARCAHNIVKYPQCRQHALMTIQQLVLSPNGDDDMGTLLGLMHSAPPTELQLKTDILRALLSVLRESHRSRTVFRKVGGFVYITSLLVAMERSLSCPPKNGWEKVNQNQVFELLHTVFCTLTAAMRYEPANSHFFKTEIQYEKLADAVRFLGCFSDLRKISAMNVFPSNTQPFQRLLEEDVISIESVSPTLRHCSKLFIYLYKVATDSFDSRAEQIPPCLTSESSLPSPWGTPALSRKRHAYHSVSTPPVYPPKNVADLKLHVTTSSLQSSDAVIIHPGAMLAMLDLLASVGSVTQPEHALDLQLAVANILQSLVHTERNQQVMCEAGLHARLLQRCSAALADEDHSLHPPLQRMFERLASQALEPMVLREFLRLASPLNCGAWDKKLLKQYRVHKPSSLSYEPEMRSSMITSLEGLGTDNVFSLHEDNHYRISKSLVKSAEGSTVPLTRVKCLVSMTTPHDIRLHGSSVTPAFVEFDTSLEGFGCLFLPSLAPHNAPTNNTVTTGLIDGAVVSGIGSGERFFPPPSGLSYSSWFCIEHFSSPPNNHPVRLLTVVRRANSSEQHYVCLAIVLSAKDRSLIVSTKEELLQNYVDDFSEESSFYEILPCCARFRCGELIIEGQWHHLVLVMSKGMLKNSTAALYIDGQLVNTVKLHYVHSTPGGSGSANPPVVSTVYAYIGTPPAQRQIASLVWRLGPTHFLEEVLPSSNVTTIYELGPNYVGSFQAVCMPCKDAKSEGVVPSPVSLVPEEKVSFGLYALSVSSLTVARIRKVYNKLDSKAIAKQLGISSHENATPVKLIHNSAGHLNGSARTIGAALIGYLGVRTFVPKPVATTLQYVGGAAAILGLVAMASDVEGLYAAVKALVCVVKSNPLASKEMERIKGYQLLAMLLKKKRSLLNSHILHLTFSLVGTVDSGHETSIIPNSTAFQDLLCDFEVWLHAPYELHLSLFEHFIELLTESSEASKNAKLMREFQLIPKLLLTLRDMSLSQPTIAAISNVLSFLLQGFPSSNDLLRFGQFISSTLPTFAVCEKFVVMEINNEEKLDTGTEEEFGGLVSANLILLRNRLLDILLKLIYTSKEKTSINLQACEELVKTLGFDWIMMFMEEHLHSTTVTAAMRILVVLLSNQSILIKFKEGLSGGGWLEQTDSVLTNKIGTVLGFNVGRSAGGRSTVREINRDACHFPGFPVLQSFLPKHTNVPALYFLLMALFLQQPVSELPENLQVSVPVISCRSKQGCQFDLDSIWTFIFGVPASSGTVVSSIHNVCTEAVFLLLGMLRSMLTSPWQSEEEGSWLREYPVTLMQFFRYLYHNVPDLASMWMSPDFLCALAATVFPFNIRPYSEMVTDLDDEVGSPAEEFKAFAADTGMNRSQSEYCNVGTKTYLTNHPAKKFVFDFMRVLIIDNLCLTPASKQTPLIDLLLEASPERSTRTQQKEFQTYILDSVMDHLLAADVLLGEDASLPITSGGSYQVLVNNVFYFTQRVVDKLWQGMFNKESKLLIDFIIQLIAQSKRRSQGLSLDAVYHCLNRTILYQFSRAHKTVPQQVALLDSLRVLTVNRNLILGPGNHDQEFISCLAHCLINLHVGSNVDGFGLEAEARMTTWHIMIPSDIEPDGSYSQDISEGRQLLIKAVNRVWTELIHSKKQVLEELFKVTLPVNERGHVDIATARPLIEEAALKCWQNHLAHEKKCISRGEALAPTTQSKLSRVSSGFGLSKLTGSRRNRKESGLNKHSLSTQEISQWMFTHIAVVRDLVDTQYKEYQERQQNALKYVTEEWCQIECELLRERGLWGPPIGSHLDKWMLEMTEGPCRMRKKMVRNDMFYNHYPYVPETEQETNVASEIPSKQPETPDDIPQKKPARYRRAVSYDSKEYYMRLASGNPAIVQDAIVESSEGEAAQQEPEHGEDTIAKVKGLVKPPLKRSRSAPDGGDEENQEQLQDQIAEGSSIEEEEKTDNATLLRLLEEGEKIQHMYRCARVQGLDTSEGLLLFGKEHFYVIDGFTMTATREIRDIETLPPNMHEPIIPRGARQGPSQLKRTCSIFAYEDIKEVHKRRYLLQPIAVEVFSGDGRNYLLAFQKGIRNKVYQRFLAVVPSLTDSSESVSGQRPNTSVEQGSGLLSTLVGEKSVTQRWERGEISNFQYLMHLNTLAGRSYNDLMQYPVFPWILADYDSEEVDLTNPKTFRNLAKPMGAQTDERLAQYKKRYKDWEDPNGETPAYHYGTHYSSAMIVASYLVRMEPFTQIFLRLQGGHFDLADRMFHSVREAWYSASKHNMADVKELIPEFFYLPEFLFNSNNFDLGCKQNGTKLGDVILPPWAKGDPREFIRVHREALECDYVSAHLHEWIDLIFGYKQQGPAAVEAVNVFHHLFYEGQVDIYNINDPLKETATIGFINNFGQIPKQLFKKPHPPKRVRSRLNGDNAGISVLPGSTSDKIFFHHLDNLRPSLTPVKELKEPVGQIVCTDKGILAVEQNKVLIPPTWNKTFAWGYADLSCRLGTYESDKAMTVYECLSEWGQILCAICPNPKLVITGGTSTVVCVWEMGTSKEKAKTVTLKQALLGHTDTVTCATASLAYHIIVSGSRDRTCIIWDLNKLSFLTQLRGHRAPVSALCINELTGDIVSCAGTYIHVWSINGNPIVSVNTFTGRSQQIICCCMSEMNEWDTQNVIVTGHSDGVVRFWRMEFLQVPETPAPEPAEVLEMQEDCPEAQIGQEAQDEDSSDSEADEQSISQDPKDTPSQPSSTSHRPRAASCRATAAWCTDSGSDDSRRWSDQLSLDEKDGFIFVNYSEGQTRAHLQGPLSHPHPNPIEVRNYSRLKPGYRWERQLVFRSKLTMHTAFDRKDNAHPAEVTALGISKDHSRILVGDSRGRVFSWSVSDQPGRSAADHWVKDEGGDSCSGCSVRFSLTERRHHCRNCGQLFCQKCSRFQSEIKRLKISSPVRVCQNCYYNLQHERGSEDGPRNC
chain 2: YVKMPPTEPECEKQF

Variants of: B1
Test: GST pulldown, anti-flag western blot quantification; HeLa 3xFlag-EGFP-ALFY cell lysate; three independent experiments; read off a plot

| Variant | response |
| --- | --- |
| chain 2 YVKMPPTEPECEKQA [chain 2 F15A] | ~1.1 |
| chain 2 YVKMPPTEPEAEKQF [chain 2 C11A] | ~0.78 |
| chain 2 YVKMAPTEPECEKQF [chain 2 P5A] | ~0.87 |
| chain 2 YVKMPPTEPECEKAF [chain 2 Q14A] | ~0.68 |
| chain 2 YVKMPPTEAECEKQF [chain 2 P9A] | ~0.77 |
| chain 2 YVKAPPTEPECEKQF [chain 2 M4A] | ~1.6 |
| chain 2 YVKMPPTEPECEAQF [chain 2 K13A] | ~0.5 |
| chain 2 YVKMPPTEPACEKQF [chain 2 E10A] | ~1.2 |
| chain 2 YVAMPPTEPECEKQF [chain 2 K3A] | ~0.55 |
| chain 2 YVKMPPTAPECEKQF [chain 2 E8A] | ~1.4 |
| chain 2 YVKMPATEPECEKQF [chain 2 P6A] | ~0.67 |
| chain 2 AVKMPPTEPECEKQF [chain 2 Y1A] | ~1.4 |
| chain 2 YVKMPPTEPECAKQF [chain 2 E12A] | ~1.2 |
| chain 2 YAKMPPTEPECEKQF [chain 2 V2A] | ~1.7 |
| chain 2 YVKMPPAEPECEKQF [chain 2 T7A] | ~1.5 |
